These results are taken from article PMC3087496 (Biochemistry, 2011).

The target of this experiment is wild-type His6-Gαi1 (rat, UniProt P10824 1-354). Description: SEC. In general terms: Size exclusion chromatography separates by hydrodynamic size, large species first.
Chain of wild-type His6-Gαi1 (P10824 whole entry): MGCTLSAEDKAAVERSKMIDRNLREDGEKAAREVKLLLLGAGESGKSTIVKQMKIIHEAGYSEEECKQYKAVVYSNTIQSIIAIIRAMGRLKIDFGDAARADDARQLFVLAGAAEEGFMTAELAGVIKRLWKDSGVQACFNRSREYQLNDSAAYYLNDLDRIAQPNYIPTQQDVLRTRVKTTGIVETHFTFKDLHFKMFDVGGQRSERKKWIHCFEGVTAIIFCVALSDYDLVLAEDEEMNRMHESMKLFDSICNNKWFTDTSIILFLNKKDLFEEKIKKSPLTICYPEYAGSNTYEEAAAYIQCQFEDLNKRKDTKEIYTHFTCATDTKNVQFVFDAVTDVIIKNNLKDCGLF

B1: TxHis6-ΔRGS14 (encoding amino acids 299-544, including the RBD domains and GL domain) (domain or fragment, rat, UniProt O08773 299-544, looked up)
chain: GKYCCVYLPDGTASLALARPGLTIRDMLAGICEKRGLSLPDIKVYLVGKEQKALVLDQDCTVLADQEVRLENRITFQLELVGLERVVRISAKPTKRLQEALQPILAKHGLSLDQVVLHRPGEKQLVDLENLVSSVASQTLVLDTLPDAKTREASSIPPCRSQGCLPRTQTKDSHLPPLSSSLSVEDASGSTGKRQTCDIEGLVELLNRVQSSGAHDQRGLLRKEDLVLPEFLQLPSQRPGSQEAPP
B1: the binding result is “binds”.
